According to the supplement of paper PMC9112550, “Optimization of the antimicrobial peptide Bac7 by deep mutational scanning” (BMC Biology, 2022):

System: Escherichia coli TOP10
Assay: shrunken log2 fold change of peptide-encoding DNA abundance (4.5 h post-induction vs induction); higher = less antimicrobial activity (less host growth inhibition)
Details: time post-induction: 4.5 h; library: site-saturation at positions 5, 18, 19, 20
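Further: peptides expressed intracellularly from a pBAD plasmid library in pooled LB shake-flask culture, induced with 0.3% L-arabinose, DNA abundance read by NGS, three biological replicates, DESeq2 with apeglm shrinkage.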

| Sequence | shrunken log2 fold change |
| --- | --- |
| RRIRIRPPRLPRPRPRPGTNPRP | -0.314 |
| RRIRIRPPRLPRPRPRPGTTPRP | 0.252 |
| RRIRIRPPRLPRPRPRPGVCPRP | 0.0702 |
| RRIRIRPPRLPRPRPRPGVLPRP | -0.0531 |
| RRIRIRPPRLPRPRPRPGWAPRP | 0.22 |
| RRIRIRPPRLPRPRPRPGWHPRP | -0.0557 |
| RRIRIRPPRLPRPRPRPGWKPRP | -0.0134 |
| RRIRIRPPRLPRPRPRPGWQPRP | 0.449 |
| RRIRIRPPRLPRPRPRPGYIPRP | -0.752 |
| RRIRIRPPRLPRPRPRPGYWPRP | -0.0497 |
| RRIRIRPPRLPRPRPRPHDVPRP | 0.000407 |
| RRIRIRPPRLPRPRPRPHEAPRP | -0.396 |
| RRIRIRPPRLPRPRPRPHEMPRP | -0.143 |
| RRIRIRPPRLPRPRPRPHFEPRP | -0.377 |
| RRIRIRPPRLPRPRPRPHFVPRP | -0.565 |
| RRIRIRPPRLPRPRPRPHFWPRP | 0.0146 |
| RRIRIRPPRLPRPRPRPHGCPRP | -0.282 |
| RRIRIRPPRLPRPRPRPHGGPRP | -0.0479 |
| RRIRIRPPRLPRPRPRPHHHPRP | -0.719 |
| RRIRIRPPRLPRPRPRPHKWPRP | -0.256 |
| RRIRIRPPRLPRPRPRPHKYPRP | -1.08 |
| RRIRIRPPRLPRPRPRPHLMPRP | -1.31 |
| RRIRIRPPRLPRPRPRPHMVPRP | -0.181 |
| RRIRIRPPRLPRPRPRPHNSPRP | -0.132 |
| RRIRIRPPRLPRPRPRPHPDPRP | -0.45 |

| Sequence | shrunken log2 fold change |
| --- | --- |
| RRIRIRPPRLPRPRPRPHPLPRP | -0.516 |
| RRIRIRPPRLPRPRPRPHPMPRP | -0.133 |
| RRIRIRPPRLPRPRPRPHPRPRP | 0.192 |
| RRIRIRPPRLPRPRPRPHPWPRP | -0.319 |
| RRIRIRPPRLPRPRPRPHQCPRP | -0.331 |
| RRIRIRPPRLPRPRPRPHRRPRP | -0.056 |
| RRIRIRPPRLPRPRPRPHSFPRP | -0.643 |
| RRIRIRPPRLPRPRPRPHSIPRP | -0.933 |
| RRIRIRPPRLPRPRPRPHSWPRP | -0.327 |
| RRIRIRPPRLPRPRPRPHTQPRP | -0.124 |
| RRIRIRPPRLPRPRPRPHVHPRP | -0.165 |
| RRIRIRPPRLPRPRPRPHYEPRP | -0.618 |
| RRIRIRPPRLPRPRPRPHYLPRP | -0.0913 |
| RRIRIRPPRLPRPRPRPHYVPRP | -0.342 |
| RRIRIRPPRLPRPRPRPIAAPRP | 0.0481 |
| RRIRIRPPRLPRPRPRPIACPRP | -0.0842 |
| RRIRIRPPRLPRPRPRPICCPRP | -0.107 |
| RRIRIRPPRLPRPRPRPICKPRP | -0.199 |
| RRIRIRPPRLPRPRPRPIDAPRP | -0.215 |
| RRIRIRPPRLPRPRPRPIDIPRP | -0.0353 |
| RRIRIRPPRLPRPRPRPIDRPRP | 0.203 |
| RRIRIRPPRLPRPRPRPIDSPRP | 0.0203 |
| RRIRIRPPRLPRPRPRPIENPRP | -0.223 |
| RRIRIRPPRLPRPRPRPIEVPRP | -0.0018 |
| RRIRIRPPRLPRPRPRPIEWPRP | -0.123 |

| Sequence | shrunken log2 fold change |
| --- | --- |
| RRIRIRPPRLPRPRPRPIFHPRP | -0.411 |
| RRIRIRPPRLPRPRPRPIFNPRP | -0.589 |
| RRIRIRPPRLPRPRPRPIFRPRP | -0.013 |
| RRIRIRPPRLPRPRPRPIGNPRP | -0.104 |
| RRIRIRPPRLPRPRPRPIHHPRP | -0.65 |
| RRIRIRPPRLPRPRPRPIHTPRP | -0.907 |
| RRIRIRPPRLPRPRPRPIINPRP | -1.15 |
| RRIRIRPPRLPRPRPRPIKEPRP | -0.021 |
| RRIRIRPPRLPRPRPRPIKLPRP | -0.289 |
| RRIRIRPPRLPRPRPRPILHPRP | -0.469 |
| RRIRIRPPRLPRPRPRPILYPRP | -0.357 |
| RRIRIRPPRLPRPRPRPIMAPRP | -0.286 |
| RRIRIRPPRLPRPRPRPIPCPRP | -0.00867 |
| RRIRIRPPRLPRPRPRPIPHPRP | -0.297 |
| RRIRIRPPRLPRPRPRPIPLPRP | 3.4 |
| RRIRIRPPRLPRPRPRPIPWPRP | -0.533 |
| RRIRIRPPRLPRPRPRPIQEPRP | 0.0527 |
| RRIRIRPPRLPRPRPRPIQLPRP | -0.058 |
| RRIRIRPPRLPRPRPRPISAPRP | -0.0879 |
| RRIRIRPPRLPRPRPRPITEPRP | -1.09 |
| RRIRIRPPRLPRPRPRPITNPRP | -0.176 |
| RRIRIRPPRLPRPRPRPIVWPRP | 0.136 |
| RRIRIRPPRLPRPRPRPIWDPRP | -0.282 |
| RRIRIRPPRLPRPRPRPIWVPRP | -0.145 |
| RRIRIRPPRLPRPRPRPIYGPRP | -0.000842 |
